Experimental data: the DeepSol protein solubility set

Assay: soluble on expression in E. coli; label from the status in PepcDB or PDB records

| Sequence | soluble on expression in E. coli |
| --- | --- |
| GAMGDDSMRMSHLKVGSAADIPINISETDLSLLTATVVPPSGREEPCLLKRLRNGHVGISFVPKETGEHLVHVKKNGQHVASSPIPVVISQSEIGDASRVRVSGQGLHEGHTFEPAEFIIDTRDAGYGGLSLSIEGPSKVDINTEDLEDGTCRVTYCPTEPGNYIINIKFADQHVPGSPFSVKVTGEGRVK | soluble |
| MAHHHHHHMALKLCKRFLRSNTKKPIFSKARDNLKERFDDDNYSFLEDNSFDSPLKASDEFPSYMQPSDKNSSWSEEWRDENLKLREKENRYNLRVSDNYAYSVPYNYKIVIPHKGKNIKDEKDKRKKLLNDEKYIKEEYSRDVSNTLNYSDFCGFRNPTLSTFENYRYWQDSGFKKFMNRIFPIKIPEHRKIDPLLREYIYFLHSFDPYRFTFKRLSERYLFPENVIRSIYKEESVKRFLEDYHLCDDKTKRISKKEAVLKIKELIYSKKIGYKDIGDYENIKNEQDEFCGHKNTFDQINRQIIQVESISAFPLADRRNPVPKRVDIDMTVCNTSNIKIMNWINPNDKVIF | soluble |
| MSLKIKVGLIGFGRMGRFYLKEMQKSGRWDVAYICDINPDCRELAKQLSPESKILENEQEMFDDESVQVVGLFALADSRLDRIEKAIKYGKHIISEKPVSDTIDKEWKVVDITEKASCFSTVNLYLRNAWYHQTIKQFIDQGEIGELAILRICHMTPGLAPGEGHEYEGPAFHDCGMHYVDIARWYAGCEYKTWHAQGVNMWSYKDPWWVQCHGTFQNGVVFDITQGFVYGQLSKDQTHNSYVDIIGTKGIARMTHDFKTAVVDLRGVTQTHHIEKPFGGKNIDVLCDLFADSIETGIRNPQLPLIRDSAIASEYAWTFLHDAYTHDLPAIGEGHHHHHH | soluble |
| GSTPHLVNLNEDPLMSECLLYHIKDGVTRVGQVDMDIKLTGQFIREQHCLFRSIPQPDGEVVVTLEPCEGAETYVNGKLVTEPLVLKSGNRIVMGKNHVFRFNH | soluble |
| MNSKVGCLMAILLLAGCAKQTPPPQANNGWLKKTPQGNSLNVAKSSAGSTTVAYSDVIKQAASHYGVDETLIKAIIQVESGYNPDVVSRSNAVGLMQIKASTAGRDAYRMKGRNGQPSSRELKDPVKNIDIGAAYINILQNQQLAGINDPQTLRYATIVSYANGAGAMLRTFSSDKRLAVNKINSLSPNEFYQHIQKKHPAAQAPRYLWKVDTAYRAMSE | not soluble |
| MVLSVVVVGKPRCRSIAVAARERLHRYGEYPMSSNNASGKVVSVDEQAFENAGEQAADEDGFPVVDETPEFEAAVEQETQAKVDANHPDGIADTSEDRIHGVTLEQEERIRAREAELERISAQAELGTQDGREQRTRDIAAKRSAVRRAEFQTRAASVDPMADPERDDPRAELTQEQLAAVNKQSMRLAEKLDGWSRAAIGRRLGEAVVGGKDVTSAVVGVFEELQTAPGTVIPIGKLEDVNRKEVSIEGTVTRLWKPSSAAISQVGLIEDESGKTKFTSWVASEQPWIEEGEHVRIHGAAKNWYNGRVSVALTGWSTVHFPERGRWWEALEHHHHHH | not soluble |
| MSLDRVDRDILRILHAKGRLPVVELAKLVNLTTSPCSERVKRLEKEGYIRGYHADLDPGKLGLDVQVFIHIRLDQSSFSIFERFAHAVADIPEIEACYSLSGDFDTMIKVRVKDMKAYQAFMSGKLGSLPGVIQTRSEFVIEEHKTSFGINPELIYSLPS | not soluble |
| GEYKMILVVRNDLKMGKGKVAAQCSHAAVSAYKQIQRRNPEMLKQWEYCGQPKVVVKAPDEETLIALLAHAKMLGLTVSLIQDAGRTQIAPGSQTVLGIGPGPADLIDKVTGHLKLY | soluble |
| MSLTESGSCSTARQAKQKRKSHSLSIRRTNSSEQERTGLPREMLEGQDSKLPSSVRSTLLELFGQIEREFENLYIENLELRREIDTLNERLAGEGQAIDGAELSKGQLKTKASHSTSQLSQKLKTTYKASTSKIVSSFKTTTSRAICQLVKEYIGHRDGIWDVSVTRTQPIVLGTASADHTAMLWSIETGKCLVKYAGHVGSVNSIKFHPSEQLALTASGDQTAHIWRYVVQLPTPQPVADTSQQISGEDEIECSDKDEPDIDGDVSSDCPTVRVPLTSLKSHQGVVIAADWLVGGKQVVTASWDRTANMYDVETSELVHSLTGHDQELTHCCTHPTQRLVVTSSRDTTFRLWDFRDPSIHSVNVFQGHTDTVTSAVFTVGDNVVSGSDDRTVKVWDLKNMRSPIATIRTDSAINRINVCVGQKIIALPHDNRQVRLFDMSGVRLARLPRSSRQGHRRMVCCSAWSEDHPICNLFTCGFDRQAIGWNINIPALLQEKEGHHHHHH | not soluble |
